From publication PMC7007526

Target: CPn0678–GFP (Chlamydia pneumoniae)
Test: FRET or BRET

Substance “mCherry–SNX9 (from UniProt Q9Y5X1 1-595) (natural protein)” has an average donor fluorescence lifetime with the acceptor (FLIM-FRET) of 2.6 ns and a reduction of donor fluorescence lifetime (FLIM-FRET) of 256 ps.
